The text below walks through data of paper PMC10877310 (Current biology : CB, 2023).

Assay [1] has as its target porcine brain tubulin dimers (porcine, UniProt P02550 1-451; Q767L7 1-444). As to the kind of experiment: BLI.
In assay [2] the target is microtubules polymerised from porcine brain tubulin (porcine), P02550. As to the kind of experiment: co-sedimentation.
Chain of microtubules polymerised from porcine brain tubulin (porcine), P02550 (P02550 whole entry, chain 1 of 2): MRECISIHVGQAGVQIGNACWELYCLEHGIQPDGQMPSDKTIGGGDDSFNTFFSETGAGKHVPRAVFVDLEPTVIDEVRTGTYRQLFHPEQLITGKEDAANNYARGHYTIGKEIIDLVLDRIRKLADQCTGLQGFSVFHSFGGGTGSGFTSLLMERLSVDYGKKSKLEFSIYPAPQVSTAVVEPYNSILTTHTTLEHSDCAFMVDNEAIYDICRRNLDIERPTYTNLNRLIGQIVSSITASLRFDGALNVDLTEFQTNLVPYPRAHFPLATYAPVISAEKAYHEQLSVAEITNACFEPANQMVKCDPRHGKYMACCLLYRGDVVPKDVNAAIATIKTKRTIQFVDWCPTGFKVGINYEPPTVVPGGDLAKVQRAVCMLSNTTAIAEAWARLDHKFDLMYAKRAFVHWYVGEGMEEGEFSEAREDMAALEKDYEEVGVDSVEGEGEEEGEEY
Chain of microtubules polymerised from porcine brain tubulin (porcine), P02550 (P02554 whole entry, chain 2 of 2, further chain): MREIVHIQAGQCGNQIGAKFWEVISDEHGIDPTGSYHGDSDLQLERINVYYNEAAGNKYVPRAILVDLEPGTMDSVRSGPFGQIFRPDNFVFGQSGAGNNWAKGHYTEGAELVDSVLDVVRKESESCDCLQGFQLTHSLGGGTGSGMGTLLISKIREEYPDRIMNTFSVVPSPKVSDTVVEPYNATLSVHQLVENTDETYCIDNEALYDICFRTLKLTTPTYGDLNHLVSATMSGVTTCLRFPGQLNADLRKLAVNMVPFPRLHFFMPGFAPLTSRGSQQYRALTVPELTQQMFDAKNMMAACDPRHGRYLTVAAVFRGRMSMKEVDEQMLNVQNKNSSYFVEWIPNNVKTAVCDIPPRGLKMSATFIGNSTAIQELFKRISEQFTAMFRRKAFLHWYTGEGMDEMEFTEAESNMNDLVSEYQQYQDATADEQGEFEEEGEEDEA

B1: 6XHis-1024-1090 (Abl2-1024-1090, site II) (domain or fragment, murine, UniProt Q4JIM5 1024-1090, looked up)
chain: KAAPGPVPSSGKPGRPVMPPPQVPLPTSSISPAKMANGTAGTKVALRKTKQAAEKISADKISKEALL
The Kd is the free concentration of one partner at which half of the binding sites on the other are occupied at equilibrium, for simple one-to-one binding. A lower Kd goes with a tighter complex. On to B1, for which binding in assay [1] was put at a Kd of 252 ± 123 nM.

B2: 6XHis-557-C (Abl2-557-1182, C-terminal half) (domain or fragment, murine, UniProt Q4JIM5 557-1182, looked up)
chain: GRTASSSSVVPYLPRLPLLPSKTRTLRKQGENKENLDGGLDAAESLASSSAPAGFIRSTQASSGSPALPRKQRDKSPSSLLEDAKETCFTRDRKGGFFSSFMKKRNAPTPPKRSSSFREMENQPHKKYELTGNFSPVASLQNADGFSVAPSQQEPNLVPAKCYGGSFAQRNLCADDDSGGGGGSGTAGGGWSGITGFFTPRLIKKTLGLRAGKPTASDDTSKPFPRSNSTSSMSSGLPEQDRMAMTLPRNCQRSKLQLERTVSTSSQPEENVDRANDMLPKKSEEGAAPARERPKAKLLPRGATALPLRAPDPAITESDSPGVGVAGVAAAPKGKERNGGTRLGVAGVPEDGEQLGWSSPAKAVAVLPTTHNHKVPVLISPTLKHTPADVQLIGTDSQGNKFKLLSEHQVTSSGDKDRPRRVKPKCAPPPPPVMRLLQHPSTCSDPEEEPTAPPAGQHTPETQEGGKKAAPGPVPSSGKPGRPVMPPPQVPLPTSSISPAKMANGTAGTKVALRKTKQAAEKISADKISKEALLECADLLSSAITEPVPNSQLVDTGHQLLDYCSGYVDSIPQTRNKFAFREAVSKLELSLQELQVSSTAAGVPGTNPVLNNLLSCVQEISDVVQR
In turn, B2 had a Kd in assay [1] of 17 ± 8 nM.

B3: 6XHis-688-924 (Abl2-688-924, site I) (domain or fragment, murine, UniProt Q4JIM5 688-924, looked up)
chain: GNFSPVASLQNADGFSVAPSQQEPNLVPAKCYGGSFAQRNLCADDDSGGGGGSGTAGGGWSGITGFFTPRLIKKTLGLRAGKPTASDDTSKPFPRSNSTSSMSSGLPEQDRMAMTLPRNCQRSKLQLERTVSTSSQPEENVDRANDMLPKKSEEGAAPARERPKAKLLPRGATALPLRAPDPAITESDSPGVGVAGVAAAPKGKERNGGTRLGVAGVPEDGEQLGWSSPAKAVAVLP
B3 returned a Kd in assay [1] of 118 ± 39 nM.

B4: Abl2Δ688-790-eGFP, Q4JIM5 74-1182 (natural protein)
chain: EVLHRPFGCDAESQALNEAIRWSSKENLLGATESDPNLFVALYDFVASGDNTLSITKGEKLRVLGYNQNGEWSEVRSKNGQGWVPSNYITPVNSLEKHSWYHGPVSRSAAEYLLSSLINGSFLVRESESSPGQLSISLRYEGRVYHYRINTTTDSKVYVTAESRFSTLAELVHHHSTVADGLVTTLHYPAPKCNKPTVYGVSPIHDKWEMERTDITMKHKLGGGQYGEVYVGVWKKYSLTVAVKTFKEDTMEVEEFLKEAAVMKEIKHPNLVQLLGVCTLEPPFYIVTEYMPYGNLLDYLRECSREEVTAVVLLYMATQISSAMEYLEKKNFIHRDLAARNCLVGENHVVKVADFGLSRLMTGDTYTAHAGAKFPIKWTAPESLAYNTFSIKSDVWAFGVLLWEIATYGMSPYPGIDLSQVYDLLEKGYRMEQPEGCPPKVYELMRACWKWSPADRPSFAETHQAFETMFHDSSISEEVAEELGRTASSSSVVPYLPRLPLLPSKTRTLRKQGENKENLDGGLDAAESLASSSAPAGFIRSTQASSGSPALPRKQRDKSPSSLLEDAKETCFTRDRKGGFFSSFMKKRNAPTPPKRSSSFREMENQPHKKYELTSGLPEQDRMAMTLPRNCQRSKLQLERTVSTSSQPEENVDRANDMLPKKSEEGAAPARERPKAKLLPRGATALPLRAPDPAITESDSPGVGVAGVAAAPKGKERNGGTRLGVAGVPEDGEQLGWSSPAKAVAVLPTTHNHKVPVLISPTLKHTPADVQLIGTDSQGNKFKLLSEHQVTSSGDKDRPRRVKPKCAPPPPPVMRLLQHPSTCSDPEEEPTAPPAGQHTPETQEGGKKAAPGPVPSSGKPGRPVMPPPQVPLPTSSISPAKMANGTAGTKVALRKTKQAAEKISADKISKEALLECADLLSSAITEPVPNSQLVDTGHQLLDYCSGYVDSIPQTRNKFAFREAVSKLELSLQELQVSSTAAGVPGTNPVLNNLLSCVQEISDVVQR
Consider B4, for which, in assay [2], the equilibrium dissociation constant (Kd) turned out to be 400 nM. That is a sub-micromolar value.

B5: Abl2-eGFP, Q4JIM5 74-1182 (natural protein)
chain: EVLHRPFGCDAESQALNEAIRWSSKENLLGATESDPNLFVALYDFVASGDNTLSITKGEKLRVLGYNQNGEWSEVRSKNGQGWVPSNYITPVNSLEKHSWYHGPVSRSAAEYLLSSLINGSFLVRESESSPGQLSISLRYEGRVYHYRINTTTDSKVYVTAESRFSTLAELVHHHSTVADGLVTTLHYPAPKCNKPTVYGVSPIHDKWEMERTDITMKHKLGGGQYGEVYVGVWKKYSLTVAVKTFKEDTMEVEEFLKEAAVMKEIKHPNLVQLLGVCTLEPPFYIVTEYMPYGNLLDYLRECSREEVTAVVLLYMATQISSAMEYLEKKNFIHRDLAARNCLVGENHVVKVADFGLSRLMTGDTYTAHAGAKFPIKWTAPESLAYNTFSIKSDVWAFGVLLWEIATYGMSPYPGIDLSQVYDLLEKGYRMEQPEGCPPKVYELMRACWKWSPADRPSFAETHQAFETMFHDSSISEEVAEELGRTASSSSVVPYLPRLPLLPSKTRTLRKQGENKENLDGGLDAAESLASSSAPAGFIRSTQASSGSPALPRKQRDKSPSSLLEDAKETCFTRDRKGGFFSSFMKKRNAPTPPKRSSSFREMENQPHKKYELTGNFSPVASLQNADGFSVAPSQQEPNLVPAKCYGGSFAQRNLCADDDSGGGGGSGTAGGGWSGITGFFTPRLIKKTLGLRAGKPTASDDTSKPFPRSNSTSSMSSGLPEQDRMAMTLPRNCQRSKLQLERTVSTSSQPEENVDRANDMLPKKSEEGAAPARERPKAKLLPRGATALPLRAPDPAITESDSPGVGVAGVAAAPKGKERNGGTRLGVAGVPEDGEQLGWSSPAKAVAVLPTTHNHKVPVLISPTLKHTPADVQLIGTDSQGNKFKLLSEHQVTSSGDKDRPRRVKPKCAPPPPPVMRLLQHPSTCSDPEEEPTAPPAGQHTPETQEGGKKAAPGPVPSSGKPGRPVMPPPQVPLPTSSISPAKMANGTAGTKVALRKTKQAAEKISADKISKEALLECADLLSSAITEPVPNSQLVDTGHQLLDYCSGYVDSIPQTRNKFAFREAVSKLELSLQELQVSSTAAGVPGTNPVLNNLLSCVQEISDVVQR
B5: the Kd in assay [2] was found to be 320 nM.
